Measured values: US20260250410A1, “ANTIBODY AND USE THEREOF” (SICHUAN HUIYU PHARMACEUTICAL CO., LTD., priority 2022, published 2026)

T1: HuCDCP1-C (Homo sapiens, UniProt Q9H5V8)
T1 construct: made in house; host or cells: HEK-293T
T1 sequence (Q9H5V8 30-667): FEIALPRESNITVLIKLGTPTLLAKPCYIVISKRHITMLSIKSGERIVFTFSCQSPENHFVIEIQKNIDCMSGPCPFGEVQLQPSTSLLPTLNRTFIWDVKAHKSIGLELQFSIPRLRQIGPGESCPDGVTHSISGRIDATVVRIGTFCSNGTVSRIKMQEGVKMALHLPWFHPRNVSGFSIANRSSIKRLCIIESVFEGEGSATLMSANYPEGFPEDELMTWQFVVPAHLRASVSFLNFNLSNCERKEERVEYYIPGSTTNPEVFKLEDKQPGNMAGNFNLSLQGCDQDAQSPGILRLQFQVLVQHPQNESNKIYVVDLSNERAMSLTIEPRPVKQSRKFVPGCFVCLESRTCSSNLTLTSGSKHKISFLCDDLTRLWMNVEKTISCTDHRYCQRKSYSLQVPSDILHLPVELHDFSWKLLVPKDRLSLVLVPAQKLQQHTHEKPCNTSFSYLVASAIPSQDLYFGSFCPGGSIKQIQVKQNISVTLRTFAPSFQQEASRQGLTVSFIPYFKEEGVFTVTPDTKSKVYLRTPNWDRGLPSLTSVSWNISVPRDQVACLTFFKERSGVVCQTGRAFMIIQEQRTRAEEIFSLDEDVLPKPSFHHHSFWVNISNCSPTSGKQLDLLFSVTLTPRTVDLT


Legend:
HuCDCP1-C = target: T1, HuCDCP1-C; assay: Caterra affinity of humanized anti-CDCP1 antibodies; type: binding; conditions: HuCDCP1-C 2 μg/ml immobilized
Protocol: The humanized anti-CDCP1 antibodies obtained from Example 11 were subjected to gene cloning, constructed into pTT5 expression vector for a small amount of expression in CHO cells (Expi-CHOS: Gibco A29127), and purified with an Fc affinity column (AT Protein A Diamond Plus. No. AA402312). Antibody purity was analyzed by HPLC and determined by Nanodrop. High-throughput affinity assay was carried out for a small amount of antibodies by Caterra.

MDA-MB-231 cells = assay: Endocytosis capacity of humanized antibodies; type: cell-based, human; conditions: antibody 1.5 μg/mL; for 1 h endocytosis (%): MDA-MB-231, 1 h at 37° C.; for 2 h endocytosis (%): MDA-MB-231, 2 h at 37° C.
Protocol: The endocytosis capacity of the anti-CDCP1 humanized antibody was detected with reference to example 5. MDA-MB-231 cells were subjected to digestion with 5 mM EDTA, and plated at 3×10^4 cells/well after cell counting. After adding an Fc blocker and blocking at room temperature for 10 mins, a test antibody (1.5 μg/mL) was added, and the mixture was incubated at 4° C. for 30 mins, centrifuged, and washed twice with PBS+2% FBS, then the cells were divided into three equal portions (labeled as 0 h, 1 h, 2 h), cells labeled as 1 h and 2 h time points were added to 200 μL of cell culture medium, and cultured at 37° C. for 1 h and 2 h, respectively. Cells at 0 h point were centrifuged, a secondary antibody (PE anti-human IgG Fc Antibody, Biolegend, 410708) was added, and the mixture was incubated at 4° C. for 30 mins, centrifuged, and washed twice with PBS+2% FBS, and detection was performed using a flow cytometer. After incubation of cells labeled as 1 h and 2 h points at 37° C. was completed, a secondary antibody was added (in the same steps as those at 0 h point), Geo-MFI of the signal under the same voltage was collected as detection signal at 0 h, and antibody internalization rate was calculated according to the following equation: Internalization (%)=(Geo-MFI (0 h)-Geo-MFI (1, 2 h))/Geo-MFI (0 h)×100%.

Row | Molecule | ka (HuCDCP1-C) [M⁻¹ s⁻¹] | kd (HuCDCP1-C) [s⁻¹] | 1 h endocytosis (%) (MDA-MB-231 cells) | 2 h endocytosis (%) (MDA-MB-231 cells)
1 | 1CP-152: humanized anti-CDCP1 antibody produced by 8C9; VH SEQ ID NO: 344, VL SEQ ID NO: 354 (antibody, V domains shown, humanized antibody 8C9 heavy chain variable region 02; humanized antibody 8C9 light chain variable region 01) VH: EVQLVESGGGLVQPGRSLRLSCTTSGLTFTHYHMSWVRQAPGKGLEWVAIIRNKAYGYTTDYSASVRGRFTISRDDSKSILYLQMNSLKTEDTAVYYCVREGGYGYDGTFAYWGQGTLVTVSS VL: DIQMTQSPSSLSASVGDRVTITCRASESVDNYGISFMNWFQQKPGQAPKLLIYAASNQGSGVPSRFSGSGSGTDFTLTISSMQPEDFATYYCQQSKEVPRTFGGGTKVEIK | 114000 | 0.000465 | 54.39 | 69.96
2 | 1CP-157: humanized anti-CDCP1 antibody produced by 8C9; VH SEQ ID NO: 345, VL SEQ ID NO: 355 (antibody, V domains shown, humanized antibody 8C9 heavy chain variable region 03; humanized antibody 8C9 light chain variable region 02) VH: EVQLVESGGGLVQPGRSLRLSCTTSGLTFTHYHMSWVRQAPGKGPEWVAIIRNKAYGYTTDYSASVRGRFTISRDDSKSILYLQMNSLKTEDTAVYYCVREGGYGYDGTFAYWGQGTLVTVSS VL: DIQMTQSPSSLSASVGDRVTITCRASESVDNYGISFMNWFQQKPGQPPKLLIYAASNQGSGVPSRFSGSGSGTDFTLTISSMQPEDFATYYCQQSKEVPRTFGGGTKVEIK | 122000 | 0.000385 | 56.06 | 70.74
3 | 1CP-121: humanized anti-CDCP1 antibody produced by 8E5; VH SEQ ID NO: 348, VL SEQ ID NO: 359 (antibody, V domains shown, humanized antibody 8E5 heavy chain variable region 01; humanized antibody 8E5 light chain variable region 03) VH: QVQLVQSGSELKKPGASVKVSCKASGYTLTDFSMHWVRQAPGQGLEWMGWINTETGAPTYADDFKGRFVLSLDTSVSTAYLQISSLKAEDTAVYYCSRGRDYDPHFDYWGQGTLVTVSS VL: EIVLTQSPATLSLSPGERATLSCRASQSISDFLHWYQQKSGQSPRLLIKYASQSISGIPARFSGSGSGSDFTLTISSVEPEDFAVYYCQSAHSFPYTFGQGTKLEIK | 148000 | 1e-05 | 51.49 | 72.98
4 | 1CP-125: humanized anti-CDCP1 antibody produced by 3C11; VH SEQ ID NO: 340, VL SEQ ID NO: 351 (antibody, V domains shown, humanized antibody 3C11 heavy chain variable region 02; humanized antibody 3C11 light chain variable region 01) VH: QVQLVQSGAEVKKPGASVKVSCKASGYNFISYWLHWVRQAPGQGLEWMGGIYPGNTDTTYNQKFKGRVTMTADTSTSTVYMELSSLRSEDTAVYYCIRYDYDRGMDYWGQGTLVTVSS VL: DIQMTQSPSSLSASVGDRVTITCRASEDIYYRLAWYQQKPGKAPKLLISGATALETGVPSRFSGSGSGKDYTFTISSLQPEDIATYYCQHYWNIPWTFGQGTKVEIK | 151000 | 2.17e-05 | 79.56 | 88.62

Second part, led by results:

Row | ka (HuCDCP1-C) [M⁻¹ s⁻¹] | kd (HuCDCP1-C) [s⁻¹] | Molecule | 1 h endocytosis (%) (MDA-MB-231 cells) | 2 h endocytosis (%) (MDA-MB-231 cells)
5 | 152000 | 3.93e-05 | 1CP-117: humanized anti-CDCP1 antibody produced by 8E5; VH SEQ ID NO: 348, VL SEQ ID NO: 358 (antibody, V domains shown, humanized antibody 8E5 heavy chain variable region 01; humanized antibody 8E5 light chain variable region 02) VH: QVQLVQSGSELKKPGASVKVSCKASGYTLTDFSMHWVRQAPGQGLEWMGWINTETGAPTYADDFKGRFVLSLDTSVSTAYLQISSLKAEDTAVYYCSRGRDYDPHFDYWGQGTLVTVSS VL: EIVLTQSPATLSLSPGERATLSCRASQSISDFLHWYQQKPGQSPRLLIKYASQSISGIPARFSGSGSGSDFTLTISSVEPEDFAVYYCQSAHSFPYTFGQGTKLEIK | 45.68 | 68.37
6 | 148000 | 1.47e-05 | 1CP-124: humanized anti-CDCP1 antibody produced by 3C11; VH SEQ ID NO: 339, VL SEQ ID NO: 351 (antibody, V domains shown, humanized antibody 3C11 heavy chain variable region 01; humanized antibody 3C11 light chain variable region 01) VH: QVQLVQSGAEVKKPGASVKVSCKASGYNFISYWLHWVRQAPGQGLEWMGGIYPGNTDTTYNQKFKGRVTMTRDTSTSTVYMELSSLRSEDTAVYYCIRYDYDRGMDYWGQGTLVTVSS VL: DIQMTQSPSSLSASVGDRVTITCRASEDIYYRLAWYQQKPGKAPKLLISGATALETGVPSRFSGSGSGKDYTFTISSLQPEDIATYYCQHYWNIPWTFGQGTKVEIK | 38.17 | 56.39
7 | 160000 | 1e-05 | 1CP-129: humanized anti-CDCP1 antibody produced by 3C11; VH SEQ ID NO: 340, VL SEQ ID NO: 352 (antibody, V domains shown, humanized antibody 3C11 heavy chain variable region 02; humanized antibody 3C11 light chain variable region 02) VH: QVQLVQSGAEVKKPGASVKVSCKASGYNFISYWLHWVRQAPGQGLEWMGGIYPGNTDTTYNQKFKGRVTMTADTSTSTVYMELSSLRSEDTAVYYCIRYDYDRGMDYWGQGTLVTVSS VL: DIQMTQSPSSLSASVGDRVTITCRASEDIYYRLAWYQQKPGKAPKLLISGATALETGVPSRFSGSGSGKDYTLTISSLQPEDIATYYCQHYWNIPWTFGQGTKVEIK | 36.18 | 54.25
8 | 139000 | 1e-05 | 1CP-128: humanized anti-CDCP1 antibody produced by 3C11; VH SEQ ID NO: 339, VL SEQ ID NO: 352 (antibody, V domains shown, humanized antibody 3C11 heavy chain variable region 01; humanized antibody 3C11 light chain variable region 02) VH: QVQLVQSGAEVKKPGASVKVSCKASGYNFISYWLHWVRQAPGQGLEWMGGIYPGNTDTTYNQKFKGRVTMTRDTSTSTVYMELSSLRSEDTAVYYCIRYDYDRGMDYWGQGTLVTVSS VL: DIQMTQSPSSLSASVGDRVTITCRASEDIYYRLAWYQQKPGKAPKLLISGATALETGVPSRFSGSGSGKDYTLTISSLQPEDIATYYCQHYWNIPWTFGQGTKVEIK | 36.87 | 55.68
